# From patent US12016910B2, “Antigenic peptides for prevention and treatment of cancer” (ENTEROME S.A., priority 2018, dated 2024)
# Columns and labels:
# [1] = target: T1, HLA-A*0201 (Homo sapiens, UniProt P04439, D140Y/D185E/D98H/E176V/E277Q/G131W/G231S/I119V/I121R/I166T/I218V/L300P/L318F/N151K/N90K/P208A/P217A/Q86G/Q94H/R138H/R169H/T345S); assay: Affinity of the peptide to T2 cell line: HLA-A2 labelling by FACS, relative to HIV pol 589-597; format: binding; conditions: for binding affinity to HLA-A*0201 compared with the other peptides tested (in words): Examples 2, 7, 8, 9
# T1 construct: the human tumoral cell T2 which expresses the HLA-A*0201 molecule; endogenous in cells; host or cells: T2 cells (human, TAP1/2 negative)
# From the text: The experimental protocol is similar to the one that was validated for peptides presented by the HLA-A*0201 (Tourdot et al., A general strategy to enhance immunogenicity of low-affinity HLA-A2.1-associated peptides: implication in the identification of cryptic tumor epitopes. Eur J Immunol. 2000 December; 30(12):3411-21). Affinity measurement of the peptides is achieved with the human tumoral cell T2 which expresses the HLA-A*0201 molecule, but which is TAP1/2 negative and incapable of presenting endogenous peptides.
# T2 cells (2.10^5 cells per well) are incubated with decreasing concentrations of peptides from 100 μM to 1.5625 μM in a AIMV medium supplemented with 100 ng/μl of human β2m at 37° C. for 16 hours. Cells are then washed two times and marked with the anti-HLA-A2 antibody coupled to PE (clone BB7.2, BD Pharmagen).
# The analysis is achieved by FACS (Guava Easy Cyte).
# A2. Solubilisation of Peptides
# Each peptide is solubilized by taking into account the amino acid composition. […] Other peptides are resuspended in water or PBS pH7.4.
# The experimental protocol, materials and methods correspond to those outlined in Example 2, with the only difference that the above mentioned (poly)peptides were used.
# [2] = system: T-cells (IFN-secreting splenocytes); assay: Immunogenicity and cross-reactivity, confirmation in HHD DR1 mice; format: in vivo; conditions: HHD DR3 and HHD DR1 mice, summary of Examples 4 to 6
# [3] = system: T-cells (IFN-secreting splenocytes); assay: Immunogenicity and cross-reactivity, IFN ELISpot on splenocytes of immunized HHD DR3 mice; format: in vivo; conditions: for immunogenicity: immune response after challenge with the vaccination peptide or the human corresponding peptide (IFN ELISpot): 100 μg peptide + 150 μg helper peptide (DR3) + IFA s.c. days 0 and 14, splenocytes day 21
# Protocol: Concanavalin A (ConA) was used as a positive control.
# The antigenic peptide of the invention BIRC5-B1 (SEQ ID NO: 32) and the corresponding human peptide BIRC5-H (SEQ ID NO: 593) were tested in distinct groups of male and female HHD DR3 mice expressing human HLA-A2 and HLA-DR3 MHC and lacking the murine H-2 class I and class II MHCs. Groups of 5 mice (male and female) were subcutaneously injected on days 0 and 14 with 100 μg of BIRC5-B1 or BIRC5-H, 150 μg of helper peptide (DR3) and IFA. On day 21, the mice were euthanized and splenocytes were prepared and stimulated in vitro with BIRC5-B1 or the human peptide BIRC5-H to assess their capacity to secrete IFN—as assessed by ELISpot. ConA was used as a positive control.
# The antigenic peptide of the invention FOXM1-B2 (SEQ ID NO: 220) and the corresponding human peptide FOXM1-H2 (SEQ ID NO: 674) were tested in distinct groups of male and female HHD DR3 mice expressing human HLA-A2 and HLA-DR3 MHC and lacking the murine H-2 class I and class II MHCs. Groups of 5 mice (male and female) were subcutaneously injected on days 0 and 14 with 100 μg of FOXM1-B2 or FOXM1-H2, 150 μg of helper peptide (DR3) and IFA. On day 21, the mice were euthanized and splenocytes were prepared and stimulated in vitro with FOXM1-B2 or the human corresponding peptide FOXM1-H2 to assess their capacity to secrete IFN—as assessed by ELISpot. ConA was used as a positive control
# [4] = system: T cell responses (IFNγ-producing splenocytes); assay: ELISPOT-IFNγ assay on splenocytes of vaccinated HLA-A2 humanized mice; format: in vivo, HLA-A2 (CB6F1-Tg(HLA-A*0201/H2-Kb)A*0201) mice; conditions: 100 μg vacc-pAg + 150 μg T13L + IFA s.c. d0 and d14; splenocytes d21 restimulated with vacc-pAg 10 μM
# From the text: Briefly, HLA-A2 humanized mice (HLA-A2 (CB6F1-Tg(HLA-A*0201/H2-Kb)A*0201) were assigned randomly (based on mouse sex and age) to experimental groups, wherein each group was immunized with a specific vaccination peptide (vacc-pAg) combined to a common helper peptide (h-pAg T13L; sequence: […]; SEQ ID NO: 860; Bhasin M, Singh H, Raghava GP (2003) MHCBN: a comprehensive database of MHC binding and non-binding peptides. Bioinformatics 19: 665-666) (as outlined in Table 5 below). The vacc-pAg were compared in couples (group 1 vs. group 2, group 1 vs. group 3; group 1 vs. group 4; group 5 vs. group 6; group 7 vs. group 8; group 9 vs. group 10). Thereby, both native and optimized versions of a single peptide were compared in each wave.
# The peptides were provided as follows: • vacc-pAg: BIRC5-H, BIRC5-B1, BIRC5-B2, BIRC5-B3, FOXM1-H2, FOXM1-B2, EZH2-H2, EZH2-B2, 1L13RA2-H and IL13RA2-B; all produced and provided at a 4 mg/ml (4 mM) concentration; • h-pAg: T13L; Eurogentec batch 1713334 re-suspended in pure distilled water at a 10 mg/mL concentration
# The animals were immunized on day 0 (d0) with a prime injection, and on d14 with a boost injection. Each mouse was injected s.c. at tail base with 100 μL of an oil-based emulsion that contained: • 100 μg of vacc-pAg (25 μL of 4 mg/mL stock per mouse); • 150 μg of h-pAg (15 μL of 10 mg/mL stock per mouse); • 10 μL of PBS to reach a total volume of 50 μL (per mouse); • Incomplete Freund's Adjuvant (IFA) added at 1:1 (v:v) ratio (50 μL per mouse).
# A separate emulsion was prepared for each vacc-pAg, as follows: IFA reagent was added to the vacc-pAg/h-pAg/PBS mixture in a 15 mL tube and mixed on vortex for repeated cycles of 1 min until forming a thick emulsion.
# Seven days after the boost injection (i.e. on d21), the animals were euthanized and the spleen was harvested. Splenocytes were prepared by mechanical disruption of the organ followed by 70 μm-filtering and Ficoll density gradient purification.
# The splenocytes were immediately used in an ELISPOT-IFNγ assay (Table 6). Experimental conditions were repeated in triplicates, using 2*10^5 total splenocytes per well, and were cultured in presence of vacc-pAg (10 μM), lonomycin (0.1 μM) plus PMA (1 μM) or medium-only to assess for their capacity to secrete IFNγ. The commercial ELISPOT-IFNγ kit (Diaclone Kit Mujrine IFNγ ELISpot) was used following the manufacturer's instructions, and the assay was performed after about 19 h of incubation.
# Spots were counted on a CTL ELISpot reader. Data plotting and statistical analysis were performed with the Prism-5 software (GraphPad Software Inc.).
# The data were then normalized as a number of specific spots (the average counts obtained in the ‘medium only’ condition being subtracted) per 50*10^3 total T cells.
# The individual average values (obtained from the triplicates) were next used to plot the group average values. As the functional capacity of T cells might vary from individual to individual, the data were also expressed as the percentage of the ionomycin plus PMA response per individual (see FIG. 8).
Sequence,"Concentration of peptide that induces 20% of HLA-A2 expression ([1]; Example 2, Table 4)",other results
ILDEAYVRV [EGFR-B],3.1 µM,
FMLGEFLKL [BIRC5-B1],2.7 µM,"immune responses induced [2]: induced strong immune responses; immunogenicity: immune response after challenge with the vaccination peptide or the human corresponding peptide (IFN ELISpot) [3]: strongly immunogenic; immune response against the corresponding human peptide (cross-reactivity) ([3]; same immunisation): able to drive an effective immune response against human corresponding peptide; T cell responses in the ELISPOT-IFNγ assay compared to the respective human reference epitope [4]: improved T cell responses; Concentration of peptide that induces 20% of HLA-A2 expression ([1]; Example 9, Table 9): 1.24 µM; binding affinity to HLA-A*0201 compared with the other peptides tested (in words) [1]: considerably higher in vitro binding affinity"
FLVEDETVI [EZH2-B],8.8 µM,
"SMFRVLIGT (listed as Homo sapiens) [EZH2-H2, reference compound]",39.2 µM,
GLLGEFLQI [BIRC5-B3],22.9 µM,T cell responses in the ELISPOT-IFNγ assay compared to the respective human reference epitope [4]: improved T cell responses
LLLSAALSV [CHI3L1 B],3.6 µM,

# The next lines start with results.
"Concentration of peptide that induces 20% of HLA-A2 expression ([1]; Example 2, Table 4)",Sequence,other results
4.1 µM,"VLEELLWFI (listed as Homo sapiens) [TYMS H, reference compound]",
1.1 µM,SMEELLWFV [TYMS B],
13.3 µM,"FMVEDETVL (listed as Homo sapiens) [EZH2-H, reference compound]",
2.9 µM,FLPFGFILV [IL13RA2-B],"T cell responses in the ELISPOT-IFNγ assay compared to the respective human reference epitope [4]: improved T cell responses; Concentration of peptide that induces 20% of HLA-A2 expression ([1]; Example 8, Table 8): 2.9 µM; binding affinity to HLA-A*0201 compared with the other peptides tested (in words) [1]: considerably higher binding affinity"
12.6 µM,"LMDLSTTPL (listed as Homo sapiens) [FOXM1-H2, reference compound]",immunogenicity: immune response after challenge with the vaccination peptide or the human corresponding peptide (IFN ELISpot) [3]: does not induce immune response
2.7 µM,FLDSLGFSL [TYMS B2],
